Test results: paper PMC9638722, “Light regulates xylem cell differentiation via PIF in Arabidopsis”

Legend:
PIF4 [1] = molecular target: T1, PIF4 (Arabidopsis thaliana, UniProt Q8W2F3 1-430); assay: EMSA; positive control; EMSA according to Martinez et al. 2018 with minor modifications, LightShift chemiluminescent kit; buffer, salt, pH and temperature not stated; details: protein: ivt; label: 5' biotin; blunt
T1 sequence: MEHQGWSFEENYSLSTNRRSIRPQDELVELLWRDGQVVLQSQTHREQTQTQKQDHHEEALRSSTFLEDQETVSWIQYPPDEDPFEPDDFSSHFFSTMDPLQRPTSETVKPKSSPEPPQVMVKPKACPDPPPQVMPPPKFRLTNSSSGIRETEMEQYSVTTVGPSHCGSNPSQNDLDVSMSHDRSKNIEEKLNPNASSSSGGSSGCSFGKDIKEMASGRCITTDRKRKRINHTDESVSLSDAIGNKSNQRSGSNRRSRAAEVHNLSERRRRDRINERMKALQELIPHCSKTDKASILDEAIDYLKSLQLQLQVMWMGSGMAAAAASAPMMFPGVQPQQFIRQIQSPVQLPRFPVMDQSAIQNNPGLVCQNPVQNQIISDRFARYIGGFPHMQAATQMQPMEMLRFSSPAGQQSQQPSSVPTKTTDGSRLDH

PIF4 [2] = molecular target: T1, PIF4; assay: EMSA; EMSA according to Martinez et al. 2018 with minor modifications, LightShift chemiluminescent kit; buffer, salt, pH and temperature not stated; details: protein: ivt; label: 5' biotin (probe); blunt

B1: pPIL1 G-box (dsDNA)
DNA 1: TAATGGCGTGAAGGTTCTTTCCGCTCACGTGGGCCTTTTG
DNA 2: CAAAAGGCCCACGTGAGCGGAAAGAACCTTCACGCCATTA
binding result (PIF4 [1]): binds

B2: pCLE44 PBE1 WT (dsDNA)
DNA 1: GTAATATAGTGAGGTGGTCACATGTAATGGATTCAATCCAC
DNA 2: GTGGATTGAATCCATTACATGTGACCACCTCACTATATTAC
binding result (PIF4 [2]): binds
